Assay results reported in PMC4430201 (Nature, 2014).

Biological target: the molecule itself
Test: crystal structure

B1: lantibiotic dehydratase NisB (enzyme, Lactococcus lactis)
chain: MIKSSFKAQPFLVRNTILCPNDKRSFTEYTQVIETVSKNKVFLEQLLLANPKLYDVMQKYNAGLLKKKRVKKLFESIYKYYKRSYLRSTPFGLFSETSIGVFSKSSQYKLMGKTTKGIRLDTQWLIRLVHKMEVDFSKKLSFTRNNANYKFGDRVFQVYTINSSELEEVNIKYTNVYQIISEFCENDYQKYEDICETVTLCYGDEYRELSEQYLGSLIVNHYLISNLQKDLLSDFSWNTFLTKVEAIDEDKKYIIPLKKVQKFIQEYSEIEIGEGIEKLKEIYQEMSQILENDNYIQIDLISDSEINFDVKQKQQLEHLAEFLGNTTKSVRRTYLDDYKDKFIEKYGVDQEVQITELFDSTFGIGAPYNYNHPRNDFYESEPSTLYYSEEEREKYLSMYVEAVKNHNVINLDDLESHYQKMDLEKKSELQGLELFLNLAKEYEKDIFILGDIVGNNNLGGASGRFSALSPELTSYHRTIVDSVERENENKEITSCEIVFLPENIRHANVMHTSIMRRKVLPFFTSTSHNEVLLTNIYIGIDEKEKFYARDISTQEVLKFYITSMYNKTLFSNELRFLYEISLDDKFGNLPWELIYRDFDYIPRLVFDEIVISPAKWKIWGRDVNSKMTIRELIQSKEIPKEFYIVNGDNKVYLSQKNPLDMEILESAIKKSSKRKDFIELQEYFEDENIINKGEKGRVADVVVPFIRTRALGNEGRAFIREKRVSVERREKLPFNEWLYLKLYISINRQNEFLLSYLPDIQKIVANLGGNLFFLRYTDPKPHIRLRIKCSDLFLAYGSILEILKRSRKNRIMSTFDISIYDQEVERYGGFDTLELSEAIFCADSKIIPNLLTLIKDTNNDWKVDDVSILVNYLYLKCFFQNDNKKILNFLNLVSTKKVKENVNEKIEHYLKLLKVNNLGDQIFYDKNFKELKHAIKNLFLKMIAQDFELQKVYSIIDSIIHVHNNRLIGIERDKEKLIYYTLQRLFVSEEYMK
modifications: methylated prior to crystallization (residues not stated)
- stoichiometry N: 2
